Experimental data reported in the supplement of paper PMC7125110.
± gives the standard error. For some assays here: Variants at the floor of the assay were thinned out.

B1: glmS ribozyme (parent)
chain: AUAAAAGCGCCAGAACUACAGAAAUGUAGUUGACGAGGAGGAGGUUUAUCGAAUUUUCGGCGGAUGCCUCCAAA

Legend:
Details in all cases: with glucosamine-6-phosphate
[1] = variants of: B1; assay: kcat; higher = faster cleavage; RNA array
In short: (§1)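 Ribozyme variants carrying barcodes were transcribed in situ on sequenced MiSeq chips by E. coli RNA polymerase and tracked at 37 °C with a hybridised Cy3 probe. They were exposed to 40 μM to 10 mM glucosamine-6-phosphate in HEPES/KCl/Mg(OAc)2 buffer. kobs came from exponential decay fits of normalised per-tile medians, and kcat and KM from weighted Michaelis–Menten fits.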

[2] = variants of: B1; assay: self-cleavage kobs at 40 uM GlcN6P; higher = faster cleavage; RNA array
In short: as §1

[3] = variants of: B1; assay: self-cleavage kobs at 160 uM GlcN6P; higher = faster cleavage; RNA array
In short: as §1

[4] = variants of: B1; assay: self-cleavage kobs at 640 uM GlcN6P; higher = faster cleavage; RNA array
In short: as §1

[5] = variants of: B1; assay: self-cleavage kobs at 2500 uM GlcN6P; higher = faster cleavage; RNA array
In short: as §1

[6] = variants of: B1; assay: self-cleavage kobs at 10000 uM GlcN6P; higher = faster cleavage; RNA array
In short: as §1

[7] = variants of: B1; assay: KM; higher = weaker cofactor use; RNA array
In short: as §1

Variant | kcat [1] | self-cleavage kobs at 40 uM GlcN6P [2] | self-cleavage kobs at 160 uM GlcN6P [3] | self-cleavage kobs at 640 uM GlcN6P [4] | self-cleavage kobs at 2500 uM GlcN6P [5] | self-cleavage kobs at 10000 uM GlcN6P [6] | KM [7]
AUAAAAGCGCCAGAACUACAGAAAUGUAGUUGACGAGGAGGAGGUUAAUCGAAUUUUCGGCGGAUGUCUCCAAA | 0.00772 ± 0.0031 s⁻¹ | 0.00025 ± 3.1e-05 s⁻¹ | 0.000428 ± 7.1e-05 s⁻¹ | 0.003 ± 0.00062 s⁻¹ | 0.00497 ± 0.0016 s⁻¹ | 0.00638 ± 0.00092 s⁻¹ | –
AUAAAAGCGCCAGAACUACAGAAAUGUAGUUGACGAGGAGGAGGUUAAUCGAAUUUUCGGCGGAUGGCUCCAAA | 0.000644 ± 7e-05 s⁻¹ | – | 5.63e-05 ± 9.9e-06 s⁻¹ | 0.000147 ± 1.3e-05 s⁻¹ | 0.000379 ± 5.1e-05 s⁻¹ | 0.000534 ± 6.4e-05 s⁻¹ | 2020 ± 350 µM
AUAAAAGCGCCAGAACUACAGAAAUGUAGUUGACGAGGAGGAGGUUAAUCGAAUUUUCGGCGGAUGCCUCGAAA | 0.000753 ± 9.5e-05 s⁻¹ | 2.61e-05 ± 8.5e-06 s⁻¹ | 0.000142 ± 4.2e-05 s⁻¹ | 0.000227 ± 5.2e-05 s⁻¹ | 0.00055 ± 0.00011 s⁻¹ | 0.000682 ± 9.3e-05 s⁻¹ | 1130 ± 300 µM
AUAAAAGCGCCAGAACUACAGAAAUGUAGUUGACGAGGAGGAGGUUAAUCGAAUUUUCGGCGGAUGCUUCCAAA | 0.00394 ± 0.0013 s⁻¹ | 7.13e-05 ± 1.3e-05 s⁻¹ | 0.000161 ± 3.2e-05 s⁻¹ | 0.00068 ± 0.00012 s⁻¹ | 0.00129 ± 0.00025 s⁻¹ | 0.00346 ± 0.00049 s⁻¹ | 3290 ± 1500 µM
AUAAAAGCGCCAGAACUACAGAAAUGUAGUUGACGAGGAGGAGGUUAAUCGGAUUUUCGGCGGAUGCCUCCAAA | 0.00213 ± 0.00047 s⁻¹ | 3.28e-05 ± 1.5e-05 s⁻¹ | 8.42e-05 ± 1.9e-05 s⁻¹ | 0.000221 ± 3.3e-05 s⁻¹ | 0.000661 ± 9.9e-05 s⁻¹ | 0.00146 ± 0.0002 s⁻¹ | 5080 ± 1600 µM
AUAAAAGCGCCAGAACUACAGAAAUGUAGUUGACGAGGAGGAGGUGUAUCGAAAUUUCGGCGGAUGCCUCCAAA | 0.00945 ± 0.0015 s⁻¹ | 0.000165 ± 2.1e-05 s⁻¹ | 0.000444 ± 0.00011 s⁻¹ | 0.00207 ± 0.00034 s⁻¹ | 0.00434 ± 0.0016 s⁻¹ | 0.00766 ± 0.0012 s⁻¹ | 2450 ± 490 µM
AUAAAAGCGCCAGAACUACAGAAAUGUAGUUGACGAGGAGGAGGUUAAUCGAAUUUUCGGCGGAUGCCUACAAA | 0.000263 ± 6.7e-05 s⁻¹ | – | 3.52e-05 ± 1.2e-05 s⁻¹ | 0.000122 ± 1.9e-05 s⁻¹ | 0.000186 ± 3.4e-05 s⁻¹ | – | 858 ± 410 µM
AUAAAAGCGCCAGAACUACAGAAAUGUAGUUGACGAGGAGGAGGUGUAUCGAAUUUUCGGCGGAAGCCUCUAAA | 0.00287 ± 0.00028 s⁻¹ | 4.68e-05 ± 1.3e-05 s⁻¹ | 0.000191 ± 6.8e-05 s⁻¹ | 0.000735 ± 0.00016 s⁻¹ | 0.00173 ± 0.00035 s⁻¹ | 0.00224 ± 0.00038 s⁻¹ | 2140 ± 340 µM
AUAAAAGCGCCAGAACUACAGAAAUGUAGUUGACGAGGAGGAGGUUAAUCGAAUUUUCGGCGGAUGCCACCAAA | 9.51e-05 ± 1.3e-05 s⁻¹ | – | 0.00011 ± 4.9e-05 s⁻¹ | 8.57e-05 ± 2.5e-05 s⁻¹ | 0.000188 ± 8e-05 s⁻¹ | 8.87e-05 ± 2e-05 s⁻¹ | –
AUAAAAGCGCCAGAACUACAGAAAUGUAGUUGACGAGGAGGAGGUUCUUCGAAUUUUCGGCGGAUGCCUCCAAA | 0.000264 ± 3.4e-05 s⁻¹ | – | – | 9.41e-05 ± 2.5e-05 s⁻¹ | 0.000174 ± 3.2e-05 s⁻¹ | – | 1270 ± 340 µM
AUAAAAGCGCCAGAACUACAGAAAUGUAGUUGACGAGGAGGAGGUUAAUCGAAUCUUCGGCGGAUGCCUCCAAA | 0.0198 ± 0.0084 s⁻¹ | 0.000537 ± 8.5e-05 s⁻¹ | 0.00116 ± 0.00033 s⁻¹ | 0.00441 ± 0.0013 s⁻¹ | 0.0089 ± 0.0023 s⁻¹ | 0.024 ± 0.0055 s⁻¹ | –
AUAAAAGCGCCAGAACUACAGAAAUGUAGUUGACGAGGAGGAGGUGGAUCGAAUUUUCGGCGGAUGCCUCCAAA | 0.00226 ± 0.00039 s⁻¹ | 6.82e-05 ± 2e-05 s⁻¹ | 0.000208 ± 5.4e-05 s⁻¹ | 0.000551 ± 0.00016 s⁻¹ | 0.00191 ± 0.00051 s⁻¹ | 0.00188 ± 0.00039 s⁻¹ | 1530 ± 410 µM
